Experimental findings from the MegaScale stability set (Tsuboyama et al. 2023) are described below.

B1: EEHEE_rd4_0763 (parent)
chain: LTVHVGNVTYHFDNPEQAEEWAKRMAKKYQGQIHVKDGQFRIE

This data set covers variants of B1. Kind of data set: folding stability dG (cDNA display proteolysis); higher = more stable. Conditions: PBS, room temperature.
On to LTVHVGNVTYHFDNPEQAEEWAKRMAKKYQGQIHYKDGQFRIE, for which the “folding stability dG” value was found to be 9.15 kJ/mol.

As to LTVHVGNVTYHFDNPEQAEEWAKRMAKKYQGQIHVKDEQFRIE, the “folding stability dG” value came to 4.49 kJ/mol. In the case of LTVHVGNVTYHFDNPEQAEEWAKRMAKKYQGQIHVKDIQFRIE, the “folding stability dG” value is 3.64 kJ/mol.

On to FTVHVGNVTYHFDNPEQAEEWAKRMAKKYQGQIHVKDGQFRIE, for which the “folding stability dG” value was determined as 11.1 kJ/mol. For the variant RTVHVGNVTYHFDNPEQAEEWAKRMAKKYQGQIHVKDGQFRIE, the “folding stability dG” value is 7.12 kJ/mol. In the case of LTVHVGNVTYHFDNPEQAEEWAKRMAKKYKGQIHVKDGQFRIE it was 8.01 kJ/mol; in that of LTVHVGNVTYHFDNPEQAEEWAKRMAKKYEGQIHVKDGQFRIE, 5.57 kJ/mol; in that of LTVHVGNVTYHFDNPEQAEEWAKRMAKKYGGQIHVKDGQFRIE, 9.36 kJ/mol.

LTVHVGNVTYHFDNPEQAEEWAKRMAKKYAGQIHVKDGQFRIE: the “folding stability dG” value was found to be 6.87 kJ/mol. Consider LTVHVGNVTYHFDNPEQREEWAKRMAKKYQGQIHVKDGQFRIE, for which the “folding stability dG” value turned out to be 3.69 kJ/mol. Next, LTVHVGNVTYHFDNPEQHEEWAKRMAKKYQGQIHVKDGQFRIE: 2.41 kJ/mol.

Consider LFVHVGNVTYHFDNPEQAEEWAKRMAKKYQGQIHVKDGQFRIE, for which the “folding stability dG” value was 6.6 kJ/mol. In the case of LWVHVGNVTYHFDNPEQAEEWAKRMAKKYQGQIHVKDGQFRIE it was 6.26 kJ/mol. Next, LDVHVGNVTYHFDNPEQAEEWAKRMAKKYQGQIHVKDGQFRIE: 5.11 kJ/mol. Take LEVHVGNVTYHFDNPEQAEEWAKRMAKKYQGQIHVKDGQFRIE: the “folding stability dG” value worked out at 6.19 kJ/mol. Consider LTVHVGNVTYHFDNPEQAEEQAKRMAKKYQGQIHVKDGQFRIE, for which the “folding stability dG” value came out at 1 kJ/mol. As for LTVHQGNVTYHFDNPEQAEEWAKRMAKKYQGQIHVKDGQFRIE, the “folding stability dG” value was found to be 2.07 kJ/mol. Regarding LTVHWGNVTYHFDNPEQAEEWAKRMAKKYQGQIHVKDGQFRIE, the “folding stability dG” value is 7.6 kJ/mol. For the variant LTVHVGNVTYHFDNPEQAEEWAKRMAVKYQGQIHVKDGQFRIE, the “folding stability dG” value was 6.69 kJ/mol. Take LTVHVGNVTYHFDNPEQAEEWAKRMAAKYQGQIHVKDGQFRIE: the “folding stability dG” value stood at 7.64 kJ/mol. For the variant LTVHVGNVTYHFDNPEQAEEWAKRMAKKYQGQIHVKDGQFRIF, the “folding stability dG” value was found to be 7.05 kJ/mol. LTVHVGNVTYHFDNPEQAEEWAKWMAKKYQGQIHVKDGQFRIE: the “folding stability dG” value stood at 6.99 kJ/mol. For LTVHVGNVTYHFDNPEQAEEWAKLMAKKYQGQIHVKDGQFRIE, the “folding stability dG” value amounted to 8.1 kJ/mol.

On to LTVHVGNVTYHFDNPEQAEEWAKHMAKKYQGQIHVKDGQFRIE, for which the “folding stability dG” value came to 6.02 kJ/mol.

With LTVHVGNVTYHFDNPEQAEEWAKYMAKKYQGQIHVKDGQFRIE, the “folding stability dG” value stood at 7.84 kJ/mol. For LTVHVGNVTYHFDNPEQAEEWAKAMAKKYQGQIHVKDGQFRIE, the “folding stability dG” value was found to be 7.02 kJ/mol.

With LTVHVGNVWYHFDNPEQAEEWAKRMAKKYQGQIHVKDGQFRIE, the “folding stability dG” value came out at 5.36 kJ/mol. In the case of LTVHVGNVYYHFDNPEQAEEWAKRMAKKYQGQIHVKDGQFRIE it was 6.08 kJ/mol; in that of LTVHVGNVHYHFDNPEQAEEWAKRMAKKYQGQIHVKDGQFRIE, 6.13 kJ/mol. For LTVHVGNVGYHFDNPEQAEEWAKRMAKKYQGQIHVKDGQFRIE, the “folding stability dG” value turned out to be 2.91 kJ/mol. In the case of LTVHVGNVPYHFDNPEQAEEWAKRMAKKYQGQIHVKDGQFRIE it was 4.03 kJ/mol; in that of LTVHVGNVCYHFDNPEQAEEWAKRMAKKYQGQIHVKDGQFRIE, 8.39 kJ/mol. As for LTVHVGNVTYHFDNPEQAWEWAKRMAKKYQGQIHVKDGQFRIE, the “folding stability dG” value was found to be 11 kJ/mol. For the variant LTVHVGNVTYHFDNPEQAYEWAKRMAKKYQGQIHVKDGQFRIE, the “folding stability dG” value came to 9.84 kJ/mol. For the variant LTVHVGNVTYHFDNPEQAHEWAKRMAKKYQGQIHVKDGQFRIE, the “folding stability dG” value came out at 7.2 kJ/mol.

In the case of LTVHVGNVTYHFDNPEQAEEWAKRMIKKYQGQIHVKDGQFRIE, the “folding stability dG” value is 4.43 kJ/mol.

On to LTVHVGNVTYHFDNPEQAEEWAKRMPKKYQGQIHVKDGQFRIE, for which the “folding stability dG” value was found to be 1.14 kJ/mol. With LTVHVGNVTYHFDNPEQAEEWAKRMAKKGQGQIHVKDGQFRIE, the “folding stability dG” value was found to be 3.06 kJ/mol. As to LTVHVGNVTYHFDNPEQAEEWAKRMAKKCQGQIHVKDGQFRIE, the “folding stability dG” value was 9.04 kJ/mol. In the case of LTVHVGNVTYHFDNPEQAEEWAKRMAKKIQGQIHVKDGQFRIE it was 5.52 kJ/mol; in that of LTVHVGNVTYHFDNPEQAEEWAKRMAKKRQGQIHVKDGQFRIE, 3.03 kJ/mol; in that of LTVHVGNVTYHFDNPEQAEEWAKRMAKKYQGQIHVKVGQFRIE, 2.8 kJ/mol. As for LTVHVGNVTYHFDNPEQAEEWAKRMAKKYQGQIHVKGGQFRIE, the “folding stability dG” value came to 4.67 kJ/mol. For LTVHVGNVTYHFDNPEQAEEWAKRMAKKYQGQIHVKAGQFRIE, the “folding stability dG” value turned out to be 2.81 kJ/mol. In the case of LTVHVGNVTYHFDNPEQAEEWAKRMAKKYQGQIHVKKGQFRIE, the “folding stability dG” value amounted to 3.7 kJ/mol. On to LTVHVGNVTYHFDNPEQAEEWAKRMAKKYQGQIHVKQGQFRIE, for which the “folding stability dG” value stood at 3.41 kJ/mol. As to LTVHVGNVTYHFDNPEQAEEWAKRMAKKYQGQIHVKDGGFRIE, the “folding stability dG” value was 7.13 kJ/mol. On to LTVHVGNVTYHFDNPEQAEEWAKRMAKKYQGQIHVKDGMFRIE, for which the “folding stability dG” value is 5.68 kJ/mol.

Consider LTVHVGNVTYHFDNPEQAEEWAKRMAKKYQGQIHVMDGQFRIE, for which the “folding stability dG” value turned out to be 7 kJ/mol. Turning to LTVHVGNVTYHFDNPEQAEEWAKRMAKKYQGQIHVCDGQFRIE, the “folding stability dG” value was determined as 10.3 kJ/mol. In the case of LTVHVGNVTYHFDNPEQAEEWAKRMAKKYQGQIHVVDGQFRIE it was 9.38 kJ/mol; in that of LTVHVGNVTYHFDNPEQAEEWAKRMAKKYQGQIHVNDGQFRIE, 6.23 kJ/mol; in that of LTVHVGNVTYCFDNPEQAEEWAKRMAKKYQGQIHVKDGQFRIE, 11.5 kJ/mol. Turning to LTVHVGNVTYVFDNPEQAEEWAKRMAKKYQGQIHVKDGQFRIE, the “folding stability dG” value amounted to 6.74 kJ/mol. Turning to LTVHVGNVTYHFDNPEQAEEWAKRMAKKYQYQIHVKDGQFRIE, the “folding stability dG” value is 5.74 kJ/mol. With LTVHVGNVTYHFDNIEQAEEWAKRMAKKYQGQIHVKDGQFRIE, the “folding stability dG” value amounted to 7.45 kJ/mol. As to LTVHVGNVTYHFDNKEQAEEWAKRMAKKYQGQIHVKDGQFRIE, the “folding stability dG” value was found to be 7.43 kJ/mol. For LTVHVGNVTYHFDNGEQAEEWAKRMAKKYQGQIHVKDGQFRIE, the “folding stability dG” value is 5.15 kJ/mol.

Regarding LTVHVGNVTYHFDNMEQAEEWAKRMAKKYQGQIHVKDGQFRIE, the “folding stability dG” value is 7.22 kJ/mol.
